B1: P54CR4-31: EGFR-binding FN3 domain, SEQ ID NO: 26 (protein)
chain: LPAPKNLVVSEVTEDSLRLSWTAPDAAFDSFLIQYQESEKVGEAINLTVPGSERSYDLTGLKPGTEYTVSIYGVLGSYVFEHDVMLPLSAEFTT
modifications: EGFR binding FN3 domain
B2: P54CR4-31v2: P54CR4-31 with mutations L17A, N46V, E86I; SEQ ID NO: 28 (protein)
chain: B1 chain with L17A, N46V, E91I
modifications: EGFR binding FN3 domain
B3: P54AR4-83: EGFR-binding FN3 domain, SEQ ID NO: 25 (protein)
chain: LPAPKNLVVSEVTEDSLRLSWDDPWAFYESFLIQYQESEKVGEAINLTVPGSERSYDLTGLKPGTEYTVSIYGVHNVYKDTNMRGLPLSAEFTT
modifications: EGFR binding FN3 domain
B4: P54AR4-37: EGFR-binding FN3 domain, printed SEQ ID NO: 22 (that of P54AR4-73) (protein)
chain: B3 chain with D22T, D23W, W25Y, F27D, Y28L, E29D
modifications: left off: small tags and cut ends
B5: P54AR4-37v2: P54AR4-37 with mutations L17A, N46V, E86I; SEQ ID NO: 29 (protein)
chain: B3 chain with D22T, D23W, W25Y, F27D, Y28L, E29D
modifications: EGFR binding FN3 domain
B6: P114AR7P92-G8: c-Met-binding FN3 domain, SEQ ID NO: 36 (protein)
chain: LPAPKNLVVSRVTEDSARLSWTAPDAAFDSFVIRYFEFLGSGEAIVLTVPGSERSYDLTGLKPGTEYVVQILGVKGGYISIPLSAIFTT
modifications: c-Met binding FN3 domain
B7: P114AR7P93-H9: c-Met-binding FN3 domain, SEQ ID NO: 40 (protein)
chain: B6 chain with V32W, L72I, Y78H, I81L
modifications: c-Met binding FN3 domain
B8: P114AR7P93-G8: c-Met-binding FN3 domain, SEQ ID NO: 39 (protein)
chain: B6 chain with V32W, G60D, V68G, Q70T, L72N, Y78R, I79V, I81T
modifications: c-Met binding FN3 domain
B9: P114AR7P92-H5: c-Met-binding FN3 domain, SEQ ID NO: 37 (protein)
chain: B6 chain with V32W, F36L, G40L, S41G, L72M, Y78T, I79V, I81P
modifications: c-Met binding FN3 domain
B10: K62C: cysteine variant of P54AR4-83v2 (SEQ ID 208 and 246); NEM and VC-MMAF conjugates (conjugate)
chain: MLPAPKNLVVSEVTEDSARLSWDDPWAFYESFLIQYQESEKVGEAIVLTVPGSERSYDLTGLCPGTEYTVSIYGVHNVYKDTNMRGLPLSAIFTT
modifications: NEM or vcMMAF conjugate; EGFR binding FN3 domain
notes: NEM and VC-MMAF conjugates
B11: G64C: cysteine variant of P54AR4-83v2 (SEQ ID NOS: 209 and 247); NEM and VC-MMAF conjugates (conjugate)
chain: B10 chain with C63K, G65C
modifications: NEM or vcMMAF conjugate; EGFR binding FN3 domain
notes: NEM and VC-MMAF conjugates
B12: I91C: cysteine variant of P54AR4-83v2 (SEQ ID NOS: 215 and 253); NEM and VC-MMAF conjugates (conjugate)
chain: B10 chain with C63K, I92C
modifications: NEM or vcMMAF conjugate; EGFR binding FN3 domain
notes: NEM and VC-MMAF conjugates
B13: S89C: cysteine variant of P54AR4-83v2 (SEQ ID NOS: 213 and 251); NEM and VC-MMAF conjugates (conjugate)
chain: B10 chain with C63K, S90C
modifications: NEM or vcMMAF conjugate; EGFR binding FN3 domain
notes: NEM and VC-MMAF conjugates
B14: A90C: cysteine variant of P54AR4-83v2 (SEQ ID NOS: 214 and 252); NEM and VC-MMAF conjugates (conjugate)
chain: B10 chain with C63K, A91C
modifications: NEM or vcMMAF conjugate; EGFR binding FN3 domain
notes: NEM and VC-MMAF conjugates
B15: L88C: cysteine variant of P54AR4-83v2 (SEQ ID NOS: 212 and 250); NEM and VC-MMAF conjugates (conjugate)
chain: B10 chain with C63K, L89C
modifications: NEM or vcMMAF conjugate; EGFR binding FN3 domain
notes: NEM and VC-MMAF conjugates
B16: S70C: cysteine variant of P54AR4-83v2 (SEQ ID NOS: 211 and 249); NEM and VC-MMAF conjugates (conjugate)
chain: B10 chain with C63K, S71C
modifications: NEM or vcMMAF conjugate; EGFR binding FN3 domain
notes: NEM and VC-MMAF conjugates
B17: V74C: cysteine variant of P54AR4-83v2; NEM and VC-MMAF conjugates (conjugate)
chain: B3 chain with L17A, N46V, V74C, E91I
modifications: left off: small tags and cut ends
notes: cysteine variant of P54AR4-83v2; NEM and VC-MMAF conjugates
B18: Y72C: cysteine variant of P54AR4-83v2; NEM and VC-MMAF conjugates (conjugate)
chain: B3 chain with L17A, N46V, Y72C, E91I
modifications: left off: small tags and cut ends
notes: as for B17

Where a chain is given by its changes, count along the chain named. Numbers in names are those of the source.

Tested on in one data set: not listed separately
The data set can be described thus: Differential scanning calorimetry in PBS of FN3 domains. It counts as physicochemical. Conditions: DSC in PBS; EGFR-binding FN3 domains and stabilised mutants. The text has this:
A subset of the EGFR binding FN3 domains was engineered to increase the conformational stability of each molecule. The mutations L17A, N46V, and E86I (described in US Pat. Publ. No. 2011/0274623) were incorporated into clones P54AR4-83, P54CR4-31, and P54AR4-37 by DNA synthesis. […] Differential scanning calorimetry in PBS was used to assess the stability of each mutant in order to compare it to that of the corresponding parent molecule.
Thermal Stability of c-Met-Binding FN3 Domains Differential scanning calorimetry in PBS was used to assess the stability of each FN3 domain.
For orientation: DSC measures the heat that a sample takes up or gives off during a temperature scan.
For the molecule B1, the Tm (commonly the temperature at the midpoint of the melting transition) was 60.9 °C.

In the case of B2, the midpoint of thermal melting (Tm) stood at 78.9 °C.

Turning to B3, the Tm turned out to be 50.6 °C.

As for B4, the Tm is 45.9 °C.

For B5, the Tm was 64.2 °C.

The data set is the same for the next values; noted with them: DSC in PBS; c-Met-binding FN3 domains.
As for B6, the “Thermal Stability (Tm)” value was determined as 90.9 C.

In the case of B7, the “Thermal Stability (Tm)” value was 88.2 C.

On to B8, for which the “Thermal Stability (Tm)” value was determined as 76.8 C.

As for B9, the “Thermal Stability (Tm)” value came to 87 C.

Tested on in another data set: not listed separately
The data set can be described thus: Thermal stability of cysteine-NEM conjugates by DSC. It counts as physicochemical. The note with it: DSC 25-100 °C, 1 °C per minute. The method, boiled down:
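Cysteine-NEM conjugates heated from 25 °C to 100 °C at 1 °C/min by DSC, with a repeat scan to check reversibility of unfolding. Melting temperature derived by fitting to a 2-state unfolding model.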
With B10, the “First Scan Tm” value was determined as 65 °C.

B11: the “First Scan Tm” value was found to be 70 °C.

Consider B12, for which the “First Scan Tm” value worked out at 70 °C.

B13: the “First Scan Tm” value was 72 °C.

For B14, the “First Scan Tm” value was found to be 67 °C.

For the molecule B15, the “First Scan Tm” value amounted to 70 °C.

With B16, the “First Scan Tm” value is 73 °C.

B17: the “First Scan Tm” value worked out at 68 °C.

As to B18, the “First Scan Tm” value stood at 70 °C.

Staying with this data set, now noted: second identical scan.
On to B10, for which the “Second Scan Tm” value is 65 °C.

Consider B11, for which the “Second Scan Tm” value was determined as 70 °C.

In the case of B12, the “Second Scan Tm” value turned out to be 69 °C.

B13: the “Second Scan Tm” value was 71 °C.

Take B14: the “Second Scan Tm” value came to 67 °C.

As for B15, the “Second Scan Tm” value was found to be 70 °C.

With B16, the “Second Scan Tm” value amounted to 72 °C.

For the molecule B17, the “Second Scan Tm” value was found to be 67 °C.

On to B18, for which the “Second Scan Tm” value worked out at 69 °C.

Tested on in another data set: not listed separately
The data set can be described thus: Analytical size exclusion chromatography (percent monomer). The data set is classed as physicochemical. Conditions: NEM-conjugated cysteine variants; SEC, Abs280 monomer region 5.5-6 minutes vs oligomer region 4-5.3 minutes. The method, boiled down:
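Purified FN3 domains were run on a Superdex 75 5/150 column in PBS pH 7.4 at 0.3 mL/min with A280 detection. Percent monomer came from integrating the monomer peak (5.5–6 min) against oligomer peaks (4–5.3 min).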
(In general: In gel filtration, larger molecules generally elute earlier.)
Take B10: the Percent monomer came out at 95%.

Molecule B11 gave a Percent monomer of 100%.

B12 came in with a Percent monomer of 100%.

In the case of B13, the Percent monomer was determined as 96%.

As to B14, the Percent monomer turned out to be 100%.

In the case of B15, the Percent monomer is 98%.

In the case of B16, the Percent monomer is reported as 100%.

B17 had a Percent monomer of 100%.

Turning to B18, the Percent monomer is given as 100%.

In a further data set the test system is EGFR-overexpressing human tumor cell line H1573. The data set can be described thus: Cytotoxicity assay in H1573 cells. The data set is classed as cell-based. Conditions: cysteine variants conjugated to VC-MMAF, Cell TiterGlo at 70 hours, read-out: IC50. The procedure: Cell killing was assessed by measuring viability of the EGFR-overexpressing human tumor cell line H1573 following exposure to the cysteine variant-cytotoxin conjugates. Cells were plated in black-well, clear bottomed, tissue culture-treated plates (Falcon 353219) at 7000/well in 100 μL/well of phenol red free RPMI media (Gibco 11835-030) with 5% fetal bovine serum (Gibco). Cells were allowed to attach overnight at 37° C. in a humidified 5% CO2 atmosphere. Medium was aspirated from 96-well plate and cells were treated with 50 uL of fresh media and 50 uL of 2× inhibitor made up in fresh media. Cell viability was determined by an endpoint assay with Cell TiterGlo (Promega) at 70 hours. IC50 values were determined by fitting data to the equation for a sigmoidal dose response with variable slope using GraphPad Prism 5 (GraphPad Software). Table 11 reports IC50 values obtained from analysis of the CellTiter Glo data.
Conjugates consisting of ECB147 cysteine variants, 83v2-cys, or Tencon-cys linked to a cytotoxic tubulin inhibitor from the auristatin family (FIG. 2) were tested for target-dependent cytotoxicity in cancer cells. The inhibitor was linked to the cysteine-containing protein via a non-cleavable PEG4 linker or an enzyme-cleavable valine-citrulline or valine-lysine linker. Cell killing was assessed by measuring viability of the EGFR-overexpressing human tumor cell lines H1573 and A431 as well as the EGFR-negative tumor cell line MDA-MB-435 following exposure to the protein-cytotoxin conjugates using the procedure described in Example 4.
Take B10: the half-inhibitory concentration (IC50) (as a rule, the midpoint of a concentration-inhibition curve) was found to be 1.25 nM.

Consider B11, for which the IC50 came out at 0.36 nM.

Regarding B12, the IC50 came to 0.54 nM.

For the molecule B13, the IC50 was determined as 0.94 nM.

Take B14: the IC50 came to 1 nM.

For the molecule B15, the 50% inhibitory concentration (IC50) was found to be 0.81 nM.

For B16, the IC50 amounted to 1.14 nM.

Turning to B17, the IC50 is 3.13 nM.

As to B18, the IC50 was determined as 1.85 nM.

Source of the values: US11702475B2, “Cysteine engineered fibronectin type III domain binding molecules” (Janssen Biotech, Inc., priority 2013, dated 2023).
